Experimental data taken from patent US7786356B2, “Method for the production of calendic acid, a fatty acid containing delta 8,10,12 conjugated double bonds and related fatty acids having a modification at the delta 9 position” (E.I. du Pont de Nemours and Company, priority 1999, dated 2010).

System: tobacco callus
Test: Expression of CalFad2-1 in tobacco callus, GC/GC-MS of fatty acid methyl esters
Assay type: cell-based, Nicotiana tabacum cv. Xanthi
Details: stably transformed tobacco callus, 35S promoter
Text: To characterize the activity of the CalFad2-1 in transgenic plant cells, the cDNA (ecs1c.pk009.n14) encoding this enzyme was expressed in tobacco callus with the gene under control of the cauliflower mosaic virus 35S promoter. The open-reading frame of the cDNA for CalFad2-1 was amplified by PCR to generate flanking […] restriction enzyme sites for cloning into the plant expression vector. The sequence of the sense oligonucleotide used in the amplification reaction was 5′-tttgagctc[…]-3′ (SEQ ID NO:16), and the sequence of the antisense oligonucleotide was 5′-tttggatcc[…]-3′ (SEQ ID NO: 17) [Note: the bases in lower case contain the added restriction sites, which are underlined, and flanking sequence to facilitate restriction enzyme digestion]. The design of the PCR primers was based on the sequence of the CalFad2-1 cDNA shown in SEQ ID NO:1. […]
Kanamycin-resistant tobacco callus that resulted from the transformation was examined for the presence of calendic acid arising from the activity of CalFad2-1. […] The recovered fatty acid methyl esters were then analyzed using a Hewlett-Packard 6890 chromatograph fitted with an Omegawax 320 column (30 m×0.32 mm inner diameter; Supelco). […] Fatty acid methyl prepared from the transgenic tobacco callus was analyzed with an HP6890 interfaced with a HP5973 (Hewlett-Packard) mass selective detector. […]

B1: CalFad2-1: Calendula officinalis fatty acid modifying enzyme (cDNA SEQ ID NO:1, protein SEQ ID NO:2) forming conjugated double bonds at delta-9 position (protein, listed as Calendula officinalis)
chain: MGKGASNKKVLERVPITKPPFEYNDLKKAVPPHCFSRPLFRSFYFLLHDIIVTCILFYVASNYIPMLPGFLSYIVWPVYWISQGVFLGRLWMIGHECGHHSFSNYRWVDDSVGFLIHTATLTPYFSFKYSHRNHHAHTNSMEYDEVHIPKRKSEALDLYFEFLGNNPMGLMITMLCKLTFGYAAYIMFNYTGKKHKSGGLASHFYPQSPLFNDSERNHVLFSDVGICIVLYACYRIVMVTGAMSAFYVYGIPWVIMSAILFAATYLQHTHPSIPHYDTTEWNWLRGALSTIDRDLGFFNMNKTHYHVIHHLFPVIPEYHAQEATEAIKPILGQYYKYDGTPFLKALWREMKDCIYVESDQGQKKQGIYWFKNKI
methyl calendic acid, amount of the total fatty acids: up to 11.4 % of the total fatty acids
